Measurements reported in the supplement of paper PMC7877785.
± gives the uncertainty stated by the source.

Assay: self-splicing fitness, log relative to wild type (ln ratio); higher = more splicing; Tetrahymena group I intron in knt gene, E. coli kanamycin selection, DiMSum; sequences stand for … in CUCUCU…GGAGGGAAAAGUUAUCAGGCAUGCACCUGGUAGCUAGUCUUUAAACCAAUAGAUUGCAUCGGUUUAAAAGGCAAGACCGUCAAAUUGCGGGAAAGGGGUCAACAGCCGUUCAGUACCAAGUCUCAGGGGAAACUUUGAGAUGGCCUUGCAAAGGGUAUGGUAAUAAGCUGACGGACAUGGUCCUAACCACGCAGCCAAGUCCUAAGUCAACAGAUCUUCUGUUGAUAUGGAUGCAGUUCACAGACUAAAUGUCGGUCGGGGAAGAUGUAUUCUUCUCAUAAGAUAUAGUCGGACCUCUCCUUAAUGGGAGCUAGCGGAUGAAGUGAUGCAACACUGGAGCCGCUGGGAACUAAUUUGUAUGCGAAAGUAUAUUGAUUAGUUUUGGAGUACUCGUGGUCG
Method in brief: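 DiMSum derived fitness as the error-weighted combination of fold changes across replicates, kanamycin versus no kanamycin, normalised to wild type. E. coli BL21(DE3) held the library, which randomised all eight P1ex-region intron nucleotides within the knt kanamycin-resistance gene on pET-22b(+). Six replicate transformations grew overnight at 37°C or 30°C on LB agar with or without 25 μg/mL kanamycin, also containing 100 μg/mL carbenicillin, 50 μM IPTG and 0.2% rhamnose, and pooled colonies were amplicon-sequenced on an Illumina HiSeq 2500.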

| Sequence | self-splicing fitness (ln) (30 °C) | self-splicing fitness (ln) (37 °C) |
| --- | --- | --- |
| CAGAAGCAAUAUUACGGAGG | -1.91 ± 0.099 | -1.2 ± 0.1 |
| CAGAAGCAAUAUUACGGGAA | -3.21 ± 0.23 | -1.37 ± 0.25 |
| CAGAAGCAAUAUUACGGGCG | -0.315 ± 0.089 | -0.0188 ± 0.11 |
| CAGAAGCAAUAUUACGGGUA | -2.8 ± 0.16 | -2.25 ± 0.13 |
| CAGAAGCAAUAUUACGUAGU | -4.18 ± 0.24 | -1.97 ± 0.17 |
| CAGAAGCAAUAUUACGUCAU |  | -2.9 ± 0.25 |
| CAGAAGCAAUAUUACGUCGU | -4.88 ± 0.36 | -1.3 ± 0.14 |
| CAGAAGCAAUAUUACGUGCC | -4.04 ± 0.28 | -2.74 ± 0.3 |
| CAGAAGCAAUAUUACGUGUC | -3.9 ± 0.25 | -4 ± 0.27 |
| CAGCAGCAAUAUUACGAAGC | -4.28 ± 0.31 |  |
| CAGCAGCAAUAUUACGACAU | -3.505 ± 0.021 | -1.82 ± 0.034 |
| CAGCAGCAAUAUUACGAUAC | -3.52 ± 0.33 | -3.45 ± 0.4 |
| CAGCAGCAAUAUUACGCAAG | -1.53 ± 0.092 | -0.332 ± 0.11 |
| CAGCAGCAAUAUUACGCAAU | -3.18 ± 0.24 | -1.29 ± 0.15 |
| CAGCAGCAAUAUUACGCAGC | -4.33 ± 0.32 | -2.3 ± 0.28 |
| CAGCAGCAAUAUUACGCCGA | -1.81 ± 0.12 | -0.864 ± 0.091 |
| CAGCAGCAAUAUUACGCGCU | -3.39 ± 0.21 | -2.45 ± 0.16 |
| CAGCAGCAAUAUUACGCGGG | -2.78 ± 0.17 | -2.31 ± 0.2 |
| CAGCAGCAAUAUUACGGACC |  | -1.84 ± 0.34 |
| CAGCAGCAAUAUUACGGCAA | -1.35 ± 0.1 | -1.45 ± 0.097 |
| CAGCAGCAAUAUUACGGCGC | -2.93 ± 0.35 | -1.51 ± 0.2 |
| CAGCAGCAAUAUUACGGCUU | -0.00706 ± 0.07 | 0.453 ± 0.088 |
| CAGCAGCAAUAUUACGGGAA | -3.17 ± 0.33 | -1.58 ± 0.16 |
| CAGCAGCAAUAUUACGGUGC | -2.99 ± 0.17 | -2.1 ± 0.28 |
| CAGCAGCAAUAUUACGUAAU | -2.34 ± 0.16 | -1.91 ± 0.15 |

| Sequence | self-splicing fitness (ln) (30 °C) | self-splicing fitness (ln) (37 °C) |
| --- | --- | --- |
| CAGCAGCAAUAUUACGUACA | -2.34 ± 0.15 | -1.97 ± 0.16 |
| CAGCAGCAAUAUUACGUCGU | -3.42 ± 0.18 | -0.9 ± 0.09 |
| CAGCAGCAAUAUUACGUGGC | -3.81 ± 0.25 | -1.67 ± 0.23 |
| CAGCAGCAAUAUUACGUUAA | -3.01 ± 0.11 | -1.66 ± 0.1 |
| CAGCAGCAAUAUUACGUUAC |  | -2.34 ± 0.27 |
| CAGCAGCAAUAUUACGUUAU | -3.77 ± 0.19 | -2.93 ± 0.15 |
| CAGCAGCAAUAUUACGUUGU | -2.88 ± 0.1 | -1.52 ± 0.13 |
| CAGGAGCAAUAUUACGACUA | 0.224 ± 0.31 | -0.98 ± 0.34 |
| CAGGAGCAAUAUUACGAUUA | -3.38 ± 0.31 | -2.37 ± 0.3 |
| CAGGAGCAAUAUUACGCAGC | -2.14 ± 0.18 | -2.55 ± 0.33 |
| CAGGAGCAAUAUUACGCUUG | -3.59 ± 0.21 | -2.48 ± 0.3 |
| CAGGAGCAAUAUUACGGCAG | -1.41 ± 0.083 | -1.27 ± 0.09 |
| CAGGAGCAAUAUUACGGCUU | -3.93 ± 0.23 | -2.15 ± 0.21 |
| CAGGAGCAAUAUUACGGGUC | -2.84 ± 0.19 | -2.92 ± 0.21 |
| CAGGAGCAAUAUUACGGUAU | -3.42 ± 0.15 | -2.86 ± 0.16 |
| CAGGAGCAAUAUUACGUACC | -2.36 ± 0.45 |  |
| CAGGAGCAAUAUUACGUCAC |  | -1.92 ± 0.44 |
| CAGGAGCAAUAUUACGUCCA | -2.02 ± 0.16 | -1.08 ± 0.24 |
| CAGGAGCAAUAUUACGUGAA | -3.52 ± 0.38 | -3.2 ± 0.43 |
| CAGGAGCAAUAUUACGUGAU | -4.53 ± 0.46 | -1.95 ± 0.23 |
| CAGGAGCAAUAUUACGUGCA | -3.17 ± 0.21 | -2.6 ± 0.34 |
| CAGUAGCAAUAUUACGAAAU | -2.86 ± 0.15 | -2.54 ± 0.21 |
| CAGUAGCAAUAUUACGACCG | 0.558 ± 0.16 | -0.0835 ± 0.2 |
| CAGUAGCAAUAUUACGACGA | -1.39 ± 0.13 | -0.446 ± 0.13 |
| CAGUAGCAAUAUUACGAGAU | -4.27 ± 0.46 | -1.9 ± 0.27 |

| Sequence | self-splicing fitness (ln) (30 °C) | self-splicing fitness (ln) (37 °C) |
| --- | --- | --- |
| CAGUAGCAAUAUUACGAUUC | -3.11 ± 0.22 | -2.27 ± 0.26 |
| CAGUAGCAAUAUUACGCACC | -2.03 ± 0.26 | -1.61 ± 0.43 |
| CAGUAGCAAUAUUACGCAGU | -3.52 ± 0.34 | -2.33 ± 0.22 |
| CAGUAGCAAUAUUACGCCCU |  | -1.3 ± 0.32 |
| CAGUAGCAAUAUUACGGAAU | -3.7 ± 0.27 | -2.55 ± 0.18 |
| CAGUAGCAAUAUUACGGCAU | -4.45 ± 0.27 | -1.78 ± 0.18 |
| CAGUAGCAAUAUUACGGCCA | -1.17 ± 0.16 | -1.11 ± 0.21 |
| CAGUAGCAAUAUUACGGGAG | -2.37 ± 0.18 | -1.91 ± 0.27 |
| CAGUAGCAAUAUUACGGGCU | -3.56 ± 0.26 | -1.21 ± 0.15 |
| CAGUAGCAAUAUUACGGUCG | -0.204 ± 0.093 | 0.084 ± 0.1 |
| CAGUAGCAAUAUUACGGUGA | -4.04 ± 0.31 | -2.58 ± 0.24 |
| CAGUAGCAAUAUUACGGUUC | -2.7 ± 0.25 | -2.53 ± 0.29 |
| CAGUAGCAAUAUUACGGUUU | -3.21 ± 0.22 | -0.724 ± 0.15 |
| CAGUAGCAAUAUUACGUAGA | -3.03 ± 0.14 | -1.85 ± 0.16 |
| CAGUAGCAAUAUUACGUAGG | -0.361 ± 0.047 | -0.0678 ± 0.066 |
| CAGUAGCAAUAUUACGUCCA | -2.28 ± 0.21 | -1.83 ± 0.28 |
| CAGUAGCAAUAUUACGUGAG | -1.18 ± 0.067 | -0.54 ± 0.12 |
| CAGUAGCAAUAUUACGUGUC | -3.74 ± 0.27 | -3.17 ± 0.33 |
| CAGUAGCAAUAUUACGUGUG | -1.64 ± 0.062 | -1.23 ± 0.085 |
| CAGUAGCAAUAUUACGUUGG | -1.56 ± 0.075 | -0.932 ± 0.1 |
| CAUAAGCAAUAUUACGAGUG | -2.76 ± 0.19 | -2.86 ± 0.2 |
| CAUAAGCAAUAUUACGAUUU | -2.47 ± 0.13 | -2.19 ± 0.16 |
| CAUAAGCAAUAUUACGCACC | -2.33 ± 0.4 | -0.0667 ± 0.48 |
| CAUAAGCAAUAUUACGCACU | -2.12 ± 0.11 | -0.81 ± 0.11 |
| CAUAAGCAAUAUUACGCAGA | -2.5 ± 0.17 | -2.51 ± 0.17 |

| Sequence | self-splicing fitness (ln) (30 °C) | self-splicing fitness (ln) (37 °C) |
| --- | --- | --- |
| CAUAAGCAAUAUUACGCCAU | -1.36 ± 0.15 | -2.6 ± 0.34 |
| CAUAAGCAAUAUUACGCCGA |  | -1.71 ± 0.48 |
| CAUAAGCAAUAUUACGCCUA | -2.46 ± 0.35 | -0.984 ± 0.21 |
| CAUAAGCAAUAUUACGCGGC | -3.43 ± 0.28 | -2.53 ± 0.23 |
| CAUAAGCAAUAUUACGCUAU | -2.93 ± 0.28 | -2.99 ± 0.4 |
| CAUAAGCAAUAUUACGCUUG | -3.08 ± 0.29 | -3.01 ± 0.25 |
| CAUAAGCAAUAUUACGUACA | -3.09 ± 0.36 | -2.37 ± 0.19 |
| CAUAAGCAAUAUUACGUCCG | -0.727 ± 0.081 | 1.11 ± 0.12 |
| CAUAAGCAAUAUUACGUCUA | -2.41 ± 0.14 | -1.4 ± 0.11 |
| CAUAAGCAAUAUUACGUGUA | -2.6 ± 0.14 | -1.77 ± 0.18 |
| CAUAAGCAAUAUUACGUUAC | -3.85 ± 0.24 | -2.15 ± 0.24 |
| CAUCAGCAAUAUUACGAACU | -3.37 ± 0.21 | -0.499 ± 0.17 |
| CAUCAGCAAUAUUACGACAU | -2.905 ± 0.017 | -1.51 ± 0.033 |
| CAUCAGCAAUAUUACGACCU | -2.49 ± 0.31 | -1.17 ± 0.29 |
| CAUCAGCAAUAUUACGACGC | -2.37 ± 0.23 | -1.23 ± 0.26 |
| CAUCAGCAAUAUUACGACUU | -1.85 ± 0.081 | -0.408 ± 0.081 |
| CAUCAGCAAUAUUACGAUAG | -0.277 ± 0.1 | -0.0749 ± 0.14 |
| CAUCAGCAAUAUUACGCAGU | -2.02 ± 0.089 | -1.78 ± 0.097 |
| CAUCAGCAAUAUUACGCCAA | -1.99 ± 0.25 | -1.81 ± 0.24 |
| CAUCAGCAAUAUUACGCCAG | -0.613 ± 0.068 | -0.553 ± 0.1 |
| CAUCAGCAAUAUUACGCGAU | -3.69 ± 0.23 | -2.86 ± 0.32 |
| CAUCAGCAAUAUUACGCGCU |  | -1.87 ± 0.29 |
| CAUCAGCAAUAUUACGCUGA | -3.2 ± 0.22 | -2.24 ± 0.27 |
